From patent US20070065468A1 come the findings set out here.

This assay concerns the target mite allergen specific IgE of atopic subjects. Description: cell-based or functional assay.

B1: CHO-K1-expressed three-in-one chimeric mite allergen D1proenzD1LB5LD2 (protein)
chain: RPSSIKTFEEYKKAFNKSYATFEDEEAARKNFLESVKYVQSNGGAINHLSDLSLDEFKNRFLMSAEAFEHLKTQFDLNAETNACSINGNAPAEIDLRQMRTVTPIRMQGGCGSCWAFSGVAATESAYLAYRNQSLDLAEQELVDCASQHGCHGDTIPRGIEYIQHNGVVQESYYRYVAREQSCRRPNAQRFGISNYCQIYPPNVNKIREALAQTHSAIAVIIGIKDLDAFRHYDGRTIIQRDNGYQPNYHAVNIVGYSNAQGVDYWIVRNSWDTNWGDNGYGYFAANIDLMMIEEYPYVVILGGGSGGGSGGQEHKPKKDDFRNEFDHLLIEQANHAIEKGEHQLLYLQHQLDELNENKSKELQEKIIRELDVVCAMIEGAQGALERELKRTDLNILERFNYEEAQTLSKILLKDLKETEQKVKDIQTQGGGSGGGSGGDQVDVKDCANHEIKKVLVPGCHGSEPCIIHRGKPFQLEAVFEANQNTKTAKIEIKASIDGLEVDVPGIDPNACHYMKCPLVKGQQYDIKYTWNVPKIAPKSENVVVTVKVMGDDGVLACAIATHAKIRD
In turn, B1 returned a fold decrease in IgE-mediated histamine release by human basophils of 100 times; a histamine release in basophils (whole blood of two atopic individuals) of 104 fold; a skin prick test, positive skin reactivity in 15 atopic subjects of 26.6%.
